Reference: PMC4029802, “PKCε Promotes HuD-Mediated Neprilysin mRNA Stability and Enhances Neprilysin-Induced Aβ Degradation in Brain Neurons”

Target: HuD (UniProt P26378 1-385)
Assay: EMSA; 2 uM HuD, 125 nM probe; complex specificity confirmed with unlabeled competitor oligoriboprobe; 10 mM HEPES pH 7.3, 20 mM KCl, 1 mM MgCl2, 1 mM DTT, 5% glycerol, 2 ug/ml tRNA, 30 min, room temperature; 6% native PAGE, 0.5X TBE
Settings: protein: commercial; label: 3'-biotin

Chain of HuD (P26378 whole entry): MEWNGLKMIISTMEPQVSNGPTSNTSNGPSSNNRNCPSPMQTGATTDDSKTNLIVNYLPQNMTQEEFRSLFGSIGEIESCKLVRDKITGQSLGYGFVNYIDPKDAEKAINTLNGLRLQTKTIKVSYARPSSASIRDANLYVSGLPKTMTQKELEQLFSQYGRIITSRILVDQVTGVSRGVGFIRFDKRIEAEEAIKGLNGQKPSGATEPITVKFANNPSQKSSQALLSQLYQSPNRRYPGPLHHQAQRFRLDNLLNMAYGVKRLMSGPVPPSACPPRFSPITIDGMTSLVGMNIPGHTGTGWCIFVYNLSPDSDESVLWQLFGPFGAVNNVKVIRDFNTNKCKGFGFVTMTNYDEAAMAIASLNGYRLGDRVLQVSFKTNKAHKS

B1: NEP mRNA 3'-UTR ARE oligoribonucleotide (ssRNA)
RNA: UUCUGUGAUCAUUUAUUUUAAGCACUC
binding result: binds
